Assay results as given in patent publication US20200147230A1.
pKd: −log10 of the molar value.

Tests used:
[1] = molecular target: murine nucleolin (in Colon 26 / C26 murine colon carcinoma cells) (murine) (UniProt P09405); test: fixed cell assay on fixed, permeabilised murine C26 cells; negative control
human nucleolin (human) = human nucleolin (human) (UniProt P19338); test: fixed cell assay on fixed, permeabilised Raji cells; negative control, ambiguous fit
Chain of UniProt P19338 (P19338 2-710 limits assumed): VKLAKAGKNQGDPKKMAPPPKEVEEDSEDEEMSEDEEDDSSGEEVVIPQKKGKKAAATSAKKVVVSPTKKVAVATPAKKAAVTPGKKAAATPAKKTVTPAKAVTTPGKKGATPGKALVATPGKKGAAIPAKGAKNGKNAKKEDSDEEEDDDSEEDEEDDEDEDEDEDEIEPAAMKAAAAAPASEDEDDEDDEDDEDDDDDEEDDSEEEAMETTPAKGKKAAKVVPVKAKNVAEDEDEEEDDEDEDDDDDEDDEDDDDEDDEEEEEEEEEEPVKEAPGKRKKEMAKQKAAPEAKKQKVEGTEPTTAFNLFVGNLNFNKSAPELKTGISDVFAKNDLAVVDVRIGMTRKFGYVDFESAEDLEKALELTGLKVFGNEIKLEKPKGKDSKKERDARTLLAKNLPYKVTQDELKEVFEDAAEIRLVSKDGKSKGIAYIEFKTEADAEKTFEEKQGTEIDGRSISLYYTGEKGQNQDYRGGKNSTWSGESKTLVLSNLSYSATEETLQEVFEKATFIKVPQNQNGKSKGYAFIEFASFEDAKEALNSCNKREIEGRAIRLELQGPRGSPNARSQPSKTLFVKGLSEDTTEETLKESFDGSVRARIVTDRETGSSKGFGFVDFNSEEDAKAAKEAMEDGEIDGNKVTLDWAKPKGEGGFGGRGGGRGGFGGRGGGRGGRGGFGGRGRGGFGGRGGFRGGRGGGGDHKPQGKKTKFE

Chain of UniProt P09405 (P09405 2-707): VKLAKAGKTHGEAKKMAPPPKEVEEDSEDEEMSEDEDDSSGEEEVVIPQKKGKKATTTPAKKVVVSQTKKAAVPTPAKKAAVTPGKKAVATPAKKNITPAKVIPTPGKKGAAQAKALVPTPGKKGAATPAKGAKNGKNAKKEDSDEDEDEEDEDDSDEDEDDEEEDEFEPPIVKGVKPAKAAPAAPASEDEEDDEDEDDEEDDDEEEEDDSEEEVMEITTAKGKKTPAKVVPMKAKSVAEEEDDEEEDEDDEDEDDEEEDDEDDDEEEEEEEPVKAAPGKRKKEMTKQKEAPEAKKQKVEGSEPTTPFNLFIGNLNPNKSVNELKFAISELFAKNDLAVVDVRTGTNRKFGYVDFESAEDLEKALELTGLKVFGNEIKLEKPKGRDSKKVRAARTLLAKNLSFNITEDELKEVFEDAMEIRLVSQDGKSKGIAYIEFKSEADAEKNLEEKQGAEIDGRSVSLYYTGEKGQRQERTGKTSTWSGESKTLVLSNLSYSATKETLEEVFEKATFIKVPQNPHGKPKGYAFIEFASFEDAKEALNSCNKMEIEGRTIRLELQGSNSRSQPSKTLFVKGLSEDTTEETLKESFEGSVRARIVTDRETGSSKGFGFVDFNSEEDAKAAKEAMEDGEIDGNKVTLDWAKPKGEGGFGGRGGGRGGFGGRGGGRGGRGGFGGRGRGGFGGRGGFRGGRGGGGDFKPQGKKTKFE

IgG1 isotype control antibody
pKd [1]: 4.48 | pKd (human nucleolin (human)): 5.89
